Assay results as given in patent publication US20250320281A1.

Assays:
Experiment in all cases: cell-based or functional assay
[1] = target: HIV-1 IAVI-C18 envelope glycoprotein (Env) on pseudovirus (HIV-1)
[2] = target: HIV-1 Env of isolate 92RW024 (clade A pseudovirus) (HIV-1)
[3] = target: HIV-1 APV-13 envelope glycoprotein (Env) on pseudovirus (HIV-1)
[4] = target: HIV-1 Env of pseudovirus MGRM-G-025 (HIV-1, clade G isolate MGRM-G-025)
[5] = target: HIV-1 envelope glycoprotein (Env) of isolate 92RW008, clade A (HIV-1)
[6] = target: envelope protein of aMLV pseudovirus (negative control)
[7] = target: HIV-1 Env of isolate APV_13, clade B, on pseudovirus (HIV-1)
[8] = target: HIV-1 Env of isolate CAAN.A2 (Acute), clade B, on pseudovirus (HIV-1)
[9] = target: HIV-1 envelope glycoprotein (Env) of isolate 92RW009, clade A (HIV-1)
[10] = target: HIV-1 Env of isolate LAVIC_18 (HIV-1)
[11] = target: HIV-1 Env of isolate 98CN006 (CRF08 BC) (HIV-1 isolate 98CN006)
[12] = target: HIV-1 Env of pseudovirus MGRM-F1-022 (HIV-1)
[13] = target: HIV-1 envelope glycoprotein (Env) of isolate 93RW029, clade A (HIV-1)
[14] = target: HIV-1 envelope glycoprotein (Env) of isolate MGRM-A-010, clade A (HIV-1)
[15] = target: HIV-1 93IN905 envelope glycoprotein (Env) on pseudovirus (HIV-1)
[16] = target: HIV-1 Env of isolate QH0692.42 (Acute), clade B, on pseudovirus (HIV-1)
[17] = target: HIV-1 Env of isolate 92TH021 (subtype AE) (HIV-1)
[18] = target: HIV-1 Env of isolate 98CN006 (HIV-1)
[19] = target: HIV-1 Env of isolate THR0.18 (subtype B) (HIV-1)
[20] = target: HIV-1 Env of isolate MGRM-AG-002 (subtype AG) (HIV-1)
[21] = target: HIV-1 Env of isolate MG RM-D-005 (HIV-1)
[22] = target: HIV-1 Env of isolate MGRM-AG-005 (subtype AG) (HIV-1)
[23] = target: HIV-1 Env of isolate 92UG046 (HIV-1)
[24] = target: HIV-1 Env of isolate MGRM-AG-013 (subtype AG) (HIV-1)
[25] = target: HIV-1 Env of isolate JRFL (subtype B) (HIV-1)
[26] = target: aMLV envelope, on pseudovirus (negative control virus)
[27] = target: HIV-1 Env of isolate MG RM-D-002 (HIV-1)
[28] = target: HIV-1 Env of isolate MGRM-A-012 (subtype A) (HIV-1)
[29] = target: HIV-1 envelope glycoprotein (Env) of isolate MGRM-C-006 (HIV-1)
[30] = target: HIV-1 Env of isolate MG RM-D-012 (HIV-1)
[31] = target: HIV-1 Env of isolate MGRM-Chronic-B-003 (subtype B) (HIV-1)
[32] = target: HIV-1 Env of isolate MGRM-A-013 (subtype A) (HIV-1)
[33] = target: HIV-1 Env of isolate MGRM-Chronic-B-023 (subtype B) (HIV-1)
[34] = target: HIV-1 Env of isolate 92UG031 (HIV-1)
[35] = target: HIV-1 Env of isolate 92UG037 (HIV-1)
[36] = target: HIV-1 Env of isolate MGRM-AE-001 (subtype AE) (HIV-1)
[37] = target: HIV-1 Env of isolate MGRM-Chronic-B-020 (subtype B) (HIV-1)
[38] = target: HIV-1 Env of isolate 6535.3 (HIV-1)
[39] = target: HIV-1 Env of isolate NL43 (subtype B) (HIV-1)
[40] = target: HIV-1 Env of isolate MGRM-A-011 (subtype A) (HIV-1)
[41] = target: HIV-1 Env of pseudovirus isolate MGRM-G-028 (HIV-1)

Q: With b12 (antibody) as the substance, how does the IC50, pseudovirus neutralization [1] read?
A: The IC50, pseudovirus neutralization was greater than 50 µg/mL.

Q: What about the IC50 (µg/ml), pseudovirus neutralization [2] of the same substance?
A: The IC50 (µg/ml), pseudovirus neutralization was greater than 50 µg/mL.

Q: And the IC50, pseudovirus neutralization [3]?
A: The IC50, pseudovirus neutralization was greater than 25 µg/mL.

Q: And the IC50 (µg/ml), pseudovirus neutralization [4]?
A: Its IC50 (µg/ml), pseudovirus neutralization is greater than 50 µg/mL.

Q: And the IC50 (µg/ml), pseudovirus neutralization [5]?
A: Its IC50 (µg/ml), pseudovirus neutralization is 9.46 µg/mL.

Q: And the IC50 (µg/ml), pseudovirus neutralization [6]?
A: Its IC50 (µg/ml), pseudovirus neutralization is greater than 50 µg/mL.

Q: What about the IC50 (µg/ml), pseudovirus neutralization [7] of the same substance?
A: Its IC50 (µg/ml), pseudovirus neutralization is greater than 50 µg/mL.

Q: And the IC50 (µg/ml), pseudovirus neutralization [8]?
A: Its IC50 (µg/ml), pseudovirus neutralization is greater than 50 µg/mL.

Q: What about the IC50 (µg/ml), pseudovirus neutralization [9] of the same substance?
A: The IC50 (µg/ml), pseudovirus neutralization was greater than 50 µg/mL.

Q: And the IC50 [10]?
A: The IC50 was greater than 50 µg/mL.

Q: What about the IC50 (µg/ml), pseudovirus neutralization [11] of the same substance?
A: The IC50 (µg/ml), pseudovirus neutralization was greater than 50 µg/mL.

Q: And the IC50 (µg/ml), pseudovirus neutralization [12]?
A: The IC50 (µg/ml), pseudovirus neutralization was greater than 50 µg/mL.

Q: And the IC50 (µg/ml), pseudovirus neutralization [13]?
A: Its IC50 (µg/ml), pseudovirus neutralization is greater than 50 µg/mL.

Q: What about the IC50 (µg/ml), pseudovirus neutralization [14] of the same substance?
A: Its IC50 (µg/ml), pseudovirus neutralization is greater than 50 µg/mL.

Q: And the IC50, pseudovirus neutralization [15]?
A: The IC50, pseudovirus neutralization was 34.1 µg/mL.

Q: And the IC50 (µg/ml), pseudovirus neutralization [16]?
A: Its IC50 (µg/ml), pseudovirus neutralization is 0.73 µg/mL.

Q: 2F5 (antibody) was tested. Which IC50, pseudovirus neutralization [1] did it give?
A: Its IC50, pseudovirus neutralization is greater than 50 µg/mL.

Q: And the IC50 (µg/ml), pseudovirus neutralization [2]?
A: The IC50 (µg/ml), pseudovirus neutralization was 8.22 µg/mL.

Q: What about the IC50, pseudovirus neutralization [3] of the same substance?
A: Its IC50, pseudovirus neutralization is 2.8 µg/mL.

Q: What about the IC50 (µg/ml), pseudovirus neutralization [4] of the same substance?
A: Its IC50 (µg/ml), pseudovirus neutralization is greater than 50 µg/mL.

Q: And the IC50 (µg/ml), pseudovirus neutralization [5]?
A: The IC50 (µg/ml), pseudovirus neutralization was 10.4 µg/mL.

Q: And the IC50 (µg/ml), pseudovirus neutralization [6]?
A: Its IC50 (µg/ml), pseudovirus neutralization is greater than 50 µg/mL.

Q: And the IC50 (µg/ml), pseudovirus neutralization [7]?
A: The IC50 (µg/ml), pseudovirus neutralization was 3.81 µg/mL.

Q: And the IC50 (µg/ml), pseudovirus neutralization [8]?
A: Its IC50 (µg/ml), pseudovirus neutralization is 23.1 µg/mL.

Q: And the IC50 (µg/ml), pseudovirus neutralization [9]?
A: The IC50 (µg/ml), pseudovirus neutralization was 39.1 µg/mL.

Q: And the IC50 [10]?
A: Its IC50 is greater than 50 µg/mL.

Q: What about the IC50 (µg/ml), pseudovirus neutralization [11] of the same substance?
A: Its IC50 (µg/ml), pseudovirus neutralization is greater than 50 µg/mL.

Q: And the IC50 (µg/ml), pseudovirus neutralization [12]?
A: Its IC50 (µg/ml), pseudovirus neutralization is 1.26 µg/mL.

Q: What about the IC50 (µg/ml), pseudovirus neutralization [13] of the same substance?
A: The IC50 (µg/ml), pseudovirus neutralization was greater than 50 µg/mL.

Q: And the IC50 (µg/ml), pseudovirus neutralization [14]?
A: Its IC50 (µg/ml), pseudovirus neutralization is 20.8 µg/mL.

Q: What about the IC50, pseudovirus neutralization [15] of the same substance?
A: Its IC50, pseudovirus neutralization is greater than 50 µg/mL.

Q: And the IC50 (µg/ml), pseudovirus neutralization [16]?
A: The IC50 (µg/ml), pseudovirus neutralization was 5.42 µg/mL.

Q: For 5343_B08 (PGT-135) (antibody), which IC50 (µg/mL), pseudovirus neutralization [17] is on record?
A: The IC50 (µg/mL), pseudovirus neutralization was greater than 50 µg/mL.

Q: What about the IC50 (µg/mL), pseudovirus neutralization [18] of the same substance?
A: Its IC50 (µg/mL), pseudovirus neutralization is 0.429 µg/mL.

Q: What about the IC50 neutralization [19] of the same substance?
A: Its IC50 neutralization is greater than 50 µg/mL.

Q: What about the IC50 (µg/mL), pseudovirus neutralization [20] of the same substance?
A: The IC50 (µg/mL), pseudovirus neutralization was greater than 50 µg/mL.

Q: And the IC50 (µg/mL), pseudovirus neutralization [21]?
A: Its IC50 (µg/mL), pseudovirus neutralization is greater than 50 µg/mL.

Q: And the IC50 (µg/mL), pseudovirus neutralization [22]?
A: Its IC50 (µg/mL), pseudovirus neutralization is greater than 50 µg/mL.

Q: What about the IC50 (µg/mL), pseudovirus neutralization [23] of the same substance?
A: The IC50 (µg/mL), pseudovirus neutralization was greater than 50 µg/mL.

Q: And the IC50 (µg/mL), pseudovirus neutralization [24]?
A: The IC50 (µg/mL), pseudovirus neutralization was greater than 50 µg/mL.

Q: And the IC50 neutralization [25]?
A: Its IC50 neutralization is greater than 50 µg/mL.

Q: What about the IC50, pseudovirus neutralization [26] of the same substance?
A: The IC50, pseudovirus neutralization was greater than 10 µg/mL.

Q: What about the IC50 (µg/mL), pseudovirus neutralization [27] of the same substance?
A: The IC50 (µg/mL), pseudovirus neutralization was greater than 50 µg/mL.

Q: What about the IC50 (µg/mL), pseudovirus neutralization [28] of the same substance?
A: Its IC50 (µg/mL), pseudovirus neutralization is greater than 50 µg/mL.

Q: What about the IC50 (µg/mL), pseudovirus neutralization [29] of the same substance?
A: Its IC50 (µg/mL), pseudovirus neutralization is greater than 50 µg/mL.

Q: And the IC50 (µg/mL), pseudovirus neutralization [30]?
A: The IC50 (µg/mL), pseudovirus neutralization was greater than 50 µg/mL.

Q: And the IC50 neutralization [31]?
A: Its IC50 neutralization is greater than 50 µg/mL.

Q: And the IC50 (µg/mL), pseudovirus neutralization [32]?
A: The IC50 (µg/mL), pseudovirus neutralization was greater than 50 µg/mL.

Q: What about the IC50 neutralization [33] of the same substance?
A: The IC50 neutralization was 0.329 µg/mL.

Q: What about the IC50 [34] of the same substance?
A: The IC50 was greater than 50 µg/mL.

Q: And the IC50 [35]?
A: Its IC50 is 3.67 µg/mL.

Q: What about the IC50 (µg/mL), pseudovirus neutralization [36] of the same substance?
A: Its IC50 (µg/mL), pseudovirus neutralization is greater than 50 µg/mL.

Q: What about the IC50 neutralization [37] of the same substance?
A: The IC50 neutralization was 0.057 µg/mL.

Q: What about the neutralization IC50 [38] of the same substance?
A: The neutralization IC50 was greater than 50 µg/mL.

Q: What about the IC50 neutralization [39] of the same substance?
A: Its IC50 neutralization is 8.03 µg/mL.

Q: What about the IC50 (µg/mL), pseudovirus neutralization [40] of the same substance?
A: Its IC50 (µg/mL), pseudovirus neutralization is greater than 50 µg/mL.

Q: What about the IC50 (µg/mL), pseudovirus neutralization [41] of the same substance?
A: Its IC50 (µg/mL), pseudovirus neutralization is greater than 50 µg/mL.

Q: What does the source list for 4E10 (antibody)?
A: IC50, pseudovirus neutralization [1]: > 50 µg/mL; IC50 (µg/ml), pseudovirus neutralization [2]: 8.88 µg/mL; IC50, pseudovirus neutralization [3]: 3.8 µg/mL; IC50 (µg/ml), pseudovirus neutralization [4]: 1.7 µg/mL; IC50 (µg/ml), pseudovirus neutralization [5]: 14.5 µg/mL; IC50 (µg/ml), pseudovirus neutralization [6]: > 50 µg/mL; IC50 (µg/ml), pseudovirus neutralization [7]: 7.33 µg/mL; IC50 (µg/ml), pseudovirus neutralization [8]: 17.9 µg/mL; IC50 (µg/ml), pseudovirus neutralization [9]: > 50 µg/mL; IC50 [10]: > 50 µg/mL; IC50 (µg/ml), pseudovirus neutralization [11]: 1.91 µg/mL; IC50 (µg/ml), pseudovirus neutralization [12]: 1.01 µg/mL; IC50 (µg/ml), pseudovirus neutralization [13]: 15.5 µg/mL; IC50 (µg/ml), pseudovirus neutralization [14]: 14.4 µg/mL; IC50, pseudovirus neutralization [15]: 1.55 µg/mL; IC50 (µg/ml), pseudovirus neutralization [16]: 12.7 µg/mL
